The IC50 is the point on the concentration scale where inhibition reaches its midpoint. Low values mean greater potency, high ones weaker potency.

From publication doi:10.1101/2025.06.05.658000 come the findings set out here.

Holding throughout (experiment): ELISA
(In an ELISA, binding on a coated surface is turned into a signal by an enzyme label.)

Test [1] addresses HLA-DR (DRA1*01:01 / DRB1*01:01), soluble knob-into-hole Fc heterodimer (human).
In test [2] the target is HLA-DR (DRA1*01:01 / DRB1*13:02), soluble knob-into-hole Fc heterodimer (human).
The target in test [3] is HLA-DR (DRA1*01:01 / DRB1*13:01), soluble knob-into-hole Fc heterodimer (human).
Another test addresses The majority of HLA-DR.
For test [4], the target named is HLA-DR (DRA1*01:01 / DRB1*13:02), soluble knob-into-hole Fc heterodimer (human). This is another data set of the same source.
Test [5] concerns the target HLA-DR (DRA1*01:01 / DRB1*13:01), soluble knob-into-hole Fc heterodimer (human). This is another data set of the same source.

Where two headings read alike, the source gives them in different places. Where only a bound is given, the exact number is not on record here.

With “SARS-CoV-2 RBD peptide RBD491-505 (from UniProt P0DTC2 491-505)”, in test [1], the IC50 came out at 152 nM.
The same measure, in the same setting: for “SARS-CoV-2 RBD peptide RBD487-501 (from UniProt P0DTC2 487-501)” the value was 293 nM.
Turning to “biotin-labeled human Class II-associated Invariant Chain Peptide (Bio-CLIP)”, the affinity in test [2] is 4 µM; in test [3] it was 300 nM; with The majority of HLA-DR, 0 to 25 nM; in test [4], less than 300 nM; in test [5], less than 300 nM.
